# Source: patent publication JP2000166574A
# Molecular target: 抗Fasモノクローナル抗体HFE7A (from mouse-mouse hybridoma HFE7A, FERM BP-5828)
# Assay: peptide (200 μg) preincubated with HFE7A (0.25 μg), then flow cytometry on WR19L12a cells
row,Binder,inhibition of binding of HFE7A to WR19L12a cells
1,EINCTRTQNT [P100],50%
2,KCRCKPNFFC [P110],60%
